PMC3177148 (Molecular microbiology, 2011)

T1: MacB with C-terminal 6His tag, purified and reconstituted into proteoliposomes (E. coli, UniProt P75831 1-648)
T1 sequence: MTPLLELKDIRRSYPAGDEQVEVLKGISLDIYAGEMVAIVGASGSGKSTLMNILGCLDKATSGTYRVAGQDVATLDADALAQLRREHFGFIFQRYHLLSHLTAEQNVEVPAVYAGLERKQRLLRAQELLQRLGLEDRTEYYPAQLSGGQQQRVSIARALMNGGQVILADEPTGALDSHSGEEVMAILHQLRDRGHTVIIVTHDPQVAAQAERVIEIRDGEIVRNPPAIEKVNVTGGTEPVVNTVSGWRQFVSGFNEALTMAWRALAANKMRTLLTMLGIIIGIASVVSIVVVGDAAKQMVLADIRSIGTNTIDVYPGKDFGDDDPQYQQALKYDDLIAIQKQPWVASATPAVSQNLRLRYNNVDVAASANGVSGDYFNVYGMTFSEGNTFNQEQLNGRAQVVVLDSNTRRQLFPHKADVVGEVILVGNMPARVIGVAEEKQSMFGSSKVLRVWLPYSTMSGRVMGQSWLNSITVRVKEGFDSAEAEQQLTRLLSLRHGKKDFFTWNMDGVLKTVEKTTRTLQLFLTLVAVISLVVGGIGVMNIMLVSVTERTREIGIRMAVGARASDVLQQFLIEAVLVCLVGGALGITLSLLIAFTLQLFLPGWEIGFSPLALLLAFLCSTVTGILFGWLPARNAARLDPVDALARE


Legend:
MacB = MacB (Escherichia coli, UniProt P75831); assay: limited proteolysis protection; format: binding; settings: 1 mM Mg-AMPPNP, loaded on ice, proteolysis at 37°C
cross-linking = target: the molecule itself; assay: cross-linking
[1] = target: T1, MacB with C-terminal 6His tag, purified …; assay: limited proteolysis of proteoliposomes

| Molecule | limited proteolysis protection (proteinase K) in proteoliposomes, anti-MacB immu (MacB) | binding result (cross-linking) | binding result [1] |
| --- | --- | --- | --- |
| Nc1ncnc2c1ncn2[C@@H]1O[C@H](COP(=O)(O)OP(=O)(O)NP(=O)(O)O)[C@@H](O)[C@H]1O [AMPPNP] | MacB alone binds ATP and AMPPNP |  |  |
| MacA wild type with C-terminal 6His tag, purified (natural protein) MKKRKTVKKRYVIALVIVIAGLITLWRILNAPVPTYQTLIVRPGDLQQSVLATGKLDALRKVDVGAQVSGQLKTLSVAIGDKVKKDQLLGVIDPEQAENQIKEVEATLMELRAQRQQAEAELKLARVTYSRQQRLAQTKAVSQQDLDTAATEMAVKQAQIGTIDAQIKRNQASLDTAKTNLDYTRIVAPMAGEVTQITTLQGQTVIAAQQAPNILTLADMSAMLVKAQVSEADVIHLKPGQKAWFTVLGDPLTRYEGQIKDVLPTPEKVNDAIFYYARFEVPNPNGLLRLDMTAQVHIQLTDVKNVLTIPLSALGDPVGDNRYKVKLLRNGETREREVTIGARNDTDVEIVKGLEAGDEVVIGEAKPGAAQ |  | binds | binds |
| MacA G353A with C-terminal 6His tag, purified (natural protein) MKKRKTVKKRYVIALVIVIAGLITLWRILNAPVPTYQTLIVRPGDLQQSVLATGKLDALRKVDVGAQVSGQLKTLSVAIGDKVKKDQLLGVIDPEQAENQIKEVEATLMELRAQRQQAEAELKLARVTYSRQQRLAQTKAVSQQDLDTAATEMAVKQAQIGTIDAQIKRNQASLDTAKTNLDYTRIVAPMAGEVTQITTLQGQTVIAAQQAPNILTLADMSAMLVKAQVSEADVIHLKPGQKAWFTVLGDPLTRYEGQIKDVLPTPEKVNDAIFYYARFEVPNPNGLLRLDMTAQVHIQLTDVKNVLTIPLSALGDPVGDNRYKVKLLRNGETREREVTIGARNDTDVEIVKALEAGDEVVIGEAKPGAAQ |  | binds |  |
| MacA G357A with C-terminal 6His tag, purified (natural protein) MKKRKTVKKRYVIALVIVIAGLITLWRILNAPVPTYQTLIVRPGDLQQSVLATGKLDALRKVDVGAQVSGQLKTLSVAIGDKVKKDQLLGVIDPEQAENQIKEVEATLMELRAQRQQAEAELKLARVTYSRQQRLAQTKAVSQQDLDTAATEMAVKQAQIGTIDAQIKRNQASLDTAKTNLDYTRIVAPMAGEVTQITTLQGQTVIAAQQAPNILTLADMSAMLVKAQVSEADVIHLKPGQKAWFTVLGDPLTRYEGQIKDVLPTPEKVNDAIFYYARFEVPNPNGLLRLDMTAQVHIQLTDVKNVLTIPLSALGDPVGDNRYKVKLLRNGETREREVTIGARNDTDVEIVKGLEAADEVVIGEAKPGAAQ |  | binds |  |
